Source: PMC10315481

Target: globupain, wild-type zymogen (proenzyme) (unclassified Archaeoglobus species (metagenome))
Assay: SEC + AUC; SEC: Superdex 75 10/300 GL, 50 mM potassium phosphate pH 7.0, 150 mM NaCl, 500 uL of globupain at 1 mg/mL, calibrated with proteins of known molecular weight; AUC (p-0016): sedimentation velocity, 20°C, 50,000 rpm, 50 mM potassium phosphate pH 7.0, 150 mM NaCl, 1 mM EDTA, c(s) distribution in …

globupain, wild-type zymogen (proenzyme)
stoichiometry N: 2
